Assay results reported in IntAct's records for PubMed 15992545.

B1: Auxin-responsive protein IAA12 (Arabidopsis thaliana (Mouse-ear cress)), Q38830 (parent)
chain: MRGVSELEVGKSNLPAESELELGLGLSLGGGAWKERGRILTAKDFPSVGSKRSAESSSHQGASPPRSSQVVGWPPIGLHRMNSLVNNQAMKAARAEEGDGEKKVVKNDELKDVSMKVNPKVQGLGFVKVNMDGVGIGRKVDMRAHSSYENLAQTLEEMFFGMTGTTCREKVKPLRLLDGSSDFVLTYEDKEGDWMLVGDVPWRMFINSVKRLRIMGTSEASGLAPRRQEQKDRQRNNPV
partner: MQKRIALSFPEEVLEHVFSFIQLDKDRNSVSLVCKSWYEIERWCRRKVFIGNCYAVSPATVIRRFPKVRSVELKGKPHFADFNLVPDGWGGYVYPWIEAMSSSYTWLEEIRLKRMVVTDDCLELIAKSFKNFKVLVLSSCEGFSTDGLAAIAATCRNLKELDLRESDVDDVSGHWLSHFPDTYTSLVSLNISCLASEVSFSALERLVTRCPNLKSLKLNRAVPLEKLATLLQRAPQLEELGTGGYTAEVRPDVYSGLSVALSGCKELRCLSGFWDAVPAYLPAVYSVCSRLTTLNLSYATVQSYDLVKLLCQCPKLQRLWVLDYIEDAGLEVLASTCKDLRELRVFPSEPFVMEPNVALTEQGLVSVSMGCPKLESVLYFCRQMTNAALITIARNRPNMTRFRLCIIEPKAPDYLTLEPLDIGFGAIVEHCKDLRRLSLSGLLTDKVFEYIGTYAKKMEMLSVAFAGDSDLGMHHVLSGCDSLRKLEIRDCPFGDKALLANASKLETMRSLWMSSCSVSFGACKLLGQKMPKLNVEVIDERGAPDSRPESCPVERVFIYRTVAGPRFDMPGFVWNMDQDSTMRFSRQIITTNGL
B2: Auxin-responsive protein IAA12 (Arabidopsis thaliana (Mouse-ear cress)), Q38830 (parent)
chain: B1 chain
partner: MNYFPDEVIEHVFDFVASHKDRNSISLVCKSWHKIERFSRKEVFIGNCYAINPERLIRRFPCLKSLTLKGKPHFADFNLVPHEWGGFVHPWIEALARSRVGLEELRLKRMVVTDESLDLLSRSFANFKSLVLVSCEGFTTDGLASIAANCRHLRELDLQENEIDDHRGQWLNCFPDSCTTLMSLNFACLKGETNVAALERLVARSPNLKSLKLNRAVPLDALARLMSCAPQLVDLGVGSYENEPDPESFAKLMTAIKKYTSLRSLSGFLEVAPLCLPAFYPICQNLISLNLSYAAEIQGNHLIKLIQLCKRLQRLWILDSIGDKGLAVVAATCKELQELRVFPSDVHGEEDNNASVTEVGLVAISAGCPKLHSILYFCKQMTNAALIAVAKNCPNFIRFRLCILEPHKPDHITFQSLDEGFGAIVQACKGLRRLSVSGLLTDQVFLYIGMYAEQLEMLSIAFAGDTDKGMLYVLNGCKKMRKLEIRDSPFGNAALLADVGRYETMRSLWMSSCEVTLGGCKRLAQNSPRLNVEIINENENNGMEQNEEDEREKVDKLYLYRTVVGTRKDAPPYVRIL
B3: Auxin-responsive protein IAA12 (Arabidopsis thaliana (Mouse-ear cress)), Q38830 (parent)
chain: B1 chain
partner: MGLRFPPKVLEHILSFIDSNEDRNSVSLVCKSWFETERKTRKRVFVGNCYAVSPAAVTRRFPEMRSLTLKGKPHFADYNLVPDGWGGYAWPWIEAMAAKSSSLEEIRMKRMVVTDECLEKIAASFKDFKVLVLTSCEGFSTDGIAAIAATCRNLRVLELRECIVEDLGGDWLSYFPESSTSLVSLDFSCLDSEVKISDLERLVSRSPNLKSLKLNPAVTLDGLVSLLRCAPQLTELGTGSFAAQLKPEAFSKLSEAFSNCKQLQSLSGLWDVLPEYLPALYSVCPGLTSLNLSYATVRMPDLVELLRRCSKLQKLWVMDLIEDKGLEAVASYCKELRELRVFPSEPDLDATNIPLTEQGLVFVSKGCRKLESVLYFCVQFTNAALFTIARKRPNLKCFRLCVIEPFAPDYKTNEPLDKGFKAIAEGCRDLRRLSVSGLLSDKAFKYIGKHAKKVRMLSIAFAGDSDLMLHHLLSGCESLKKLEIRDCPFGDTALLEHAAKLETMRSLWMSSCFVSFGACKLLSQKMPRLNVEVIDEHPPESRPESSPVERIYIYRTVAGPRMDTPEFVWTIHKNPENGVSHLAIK

Variants of: B1
Details: with tir1_arath TIR1, Q570C0

Row | effect of a mutation on the interaction | Variant
1 | decreasing interaction | MRGVSELEVGKSNLPAESELELGLGLSLGGGAWKERGRILTAKDFPSVGSKRSAESSSHQGASPPRSSQVVGWSPIGLHRMNSLVNNQAMKAARAEEGDGEKKVVKNDELKDVSMKVNPKVQGLGFVKVNMDGVGIGRKVDMRAHSSYENLAQTLEEMFFGMTGTTCREKVKPLRLLDGSSDFVLTYEDKEGDWMLVGDVPWRMFINSVKRLRIMGTSEASGLAPRRQEQKDRQRNNPV [P74S]

Variants of: B2
Details: with afb3_arath AFB3, Q9LPW7

Row | effect of a mutation on the interaction | Variant
2 | decreasing interaction | MRGVSELEVGKSNLPAESELELGLGLSLGGGAWKERGRILTAKDFPSVGSKRSAESSSHQGASPPRSSQVVGWSPIGLHRMNSLVNNQAMKAARAEEGDGEKKVVKNDELKDVSMKVNPKVQGLGFVKVNMDGVGIGRKVDMRAHSSYENLAQTLEEMFFGMTGTTCREKVKPLRLLDGSSDFVLTYEDKEGDWMLVGDVPWRMFINSVKRLRIMGTSEASGLAPRRQEQKDRQRNNPV [P74S]

Variants of: B3
Details: with grh1_arath GRH1, Q9ZR12

Row | effect of a mutation on the interaction | Variant
3 | decreasing interaction | MRGVSELEVGKSNLPAESELELGLGLSLGGGAWKERGRILTAKDFPSVGSKRSAESSSHQGASPPRSSQVVGWSPIGLHRMNSLVNNQAMKAARAEEGDGEKKVVKNDELKDVSMKVNPKVQGLGFVKVNMDGVGIGRKVDMRAHSSYENLAQTLEEMFFGMTGTTCREKVKPLRLLDGSSDFVLTYEDKEGDWMLVGDVPWRMFINSVKRLRIMGTSEASGLAPRRQEQKDRQRNNPV [P74S]
